This note sets out measurements from paper PMC3488191, “Functional identification of the DNA packaging terminase from Pseudomonas aeruginosa phage PaP3”.

Series [1] addresses T1, p01 small terminase subunit (Pseudomonas aeruginosa phage PaP3) (UniProt Q8H9R5).
T1 sequence: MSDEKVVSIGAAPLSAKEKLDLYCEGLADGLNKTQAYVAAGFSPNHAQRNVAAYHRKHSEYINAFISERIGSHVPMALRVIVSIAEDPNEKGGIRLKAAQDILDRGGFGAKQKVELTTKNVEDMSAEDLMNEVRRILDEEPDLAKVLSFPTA
Nature of the series: EMSA. The conditions noted are these: 50 mM Tris-HCl pH 8.0, 50 mM NaCl, 10 mM MgCl2, 5% glycerol, 1.5 uM DNA, 37 C 30 min, stopped with 20 mM EDTA; 5% native PAGE in 0.5x TBE. Background: A gel shift assay detects complexes by their altered migration in electrophoresis.

The target of series [2] is T2, p03 large terminase subunit (Pseudomonas aeruginosa phage PaP3, UniProt Q8H9R7 1-482).
T2 sequence: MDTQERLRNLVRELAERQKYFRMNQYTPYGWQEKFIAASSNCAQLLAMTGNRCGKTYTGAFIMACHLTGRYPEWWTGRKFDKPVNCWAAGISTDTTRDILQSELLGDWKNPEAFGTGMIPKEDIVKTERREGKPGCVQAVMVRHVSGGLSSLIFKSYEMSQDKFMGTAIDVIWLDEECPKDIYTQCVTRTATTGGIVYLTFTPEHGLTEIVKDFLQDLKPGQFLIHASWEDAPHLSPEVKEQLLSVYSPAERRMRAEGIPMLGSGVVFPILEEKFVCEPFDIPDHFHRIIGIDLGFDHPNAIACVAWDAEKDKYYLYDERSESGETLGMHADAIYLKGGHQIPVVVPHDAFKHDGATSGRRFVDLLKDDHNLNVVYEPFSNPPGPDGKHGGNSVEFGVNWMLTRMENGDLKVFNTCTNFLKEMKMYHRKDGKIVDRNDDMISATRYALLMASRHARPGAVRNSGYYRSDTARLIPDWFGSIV
Nature of the series: EMSA; 10 mM Mg2+; 50 mM Tris-HCl pH 8.0, 50 mM NaCl, 10 mM MgCl2, 5% glycerol, 1.5 uM DNA, 37 C 30 min, stopped with 20 mM EDTA; 5% native PAGE in 0.5x TBE. The conditions noted are these: protein: recombinant; tags: C-terminal His6 (pET-22b); label: 5'-biotin; blunt.

The target of series [3] is T2, p03 large terminase subunit. Briefly: EMSA; 10 mM Mg2+; 0.4 uM p03; 50 mM Tris-HCl pH 8.0, 50 mM NaCl, 10 mM MgCl2, 5% glycerol, 1.5 uM DNA, 37 C 30 min, stopped with 20 mM EDTA; 5% native PAGE in 0.5x TBE. The conditions noted are these: protein: recombinant; tags: C-terminal His6 (pET-22b); label: 5'-biotin; blunt.

For “ATACTCCCCGTCGCGCTTGAACCACGGGGTCTGTCAATTGATTGCGCTGGGACAGGCTACCAGTCGGGCCTTCTATGGTACAAGGCCAGGACCTACGCTCTTTCGGAGTGTGCGTTATTCCCTCAGCTTTCGGGTTTCTCCCTTGTTCAGTCCAAGGACCGTCGAAGGTACACTTTCCCCAGGTGGCCGTCACCTGATGGGTGCCCATGTTAGAGCCGTGGGCTTGCCTTGTCAACCCT (double strand) [cos239dn]”, in series [1], the binding entry is listed as “no binding”.

B1: 24-bp non-cos DNA (dsDNA)
DNA 1: GCACTGCAGTAACTTGTCAGTCAT
DNA 2: ATGACTGACAAGTTACTGCAGTGC
Consider B1, for which the binding result in series [2] is “no binding”.

B2: 20-bp cos end sequence (dsDNA)
DNA 1: GCCGGCCCCTTTCCGCGTTA
DNA 2: TAACGCGGAAAGGGGCCGGC
On to B2, for which, in series [3], the binding result was “binds”.
